Source: publication PMC8224240 (Molecular cell, 2020)

Target: T1, human Smc6 with Strep-tag II (StreptagII-Smc6) (human, UniProt Q96SB8 1-1091)
T1 sequence (looked up): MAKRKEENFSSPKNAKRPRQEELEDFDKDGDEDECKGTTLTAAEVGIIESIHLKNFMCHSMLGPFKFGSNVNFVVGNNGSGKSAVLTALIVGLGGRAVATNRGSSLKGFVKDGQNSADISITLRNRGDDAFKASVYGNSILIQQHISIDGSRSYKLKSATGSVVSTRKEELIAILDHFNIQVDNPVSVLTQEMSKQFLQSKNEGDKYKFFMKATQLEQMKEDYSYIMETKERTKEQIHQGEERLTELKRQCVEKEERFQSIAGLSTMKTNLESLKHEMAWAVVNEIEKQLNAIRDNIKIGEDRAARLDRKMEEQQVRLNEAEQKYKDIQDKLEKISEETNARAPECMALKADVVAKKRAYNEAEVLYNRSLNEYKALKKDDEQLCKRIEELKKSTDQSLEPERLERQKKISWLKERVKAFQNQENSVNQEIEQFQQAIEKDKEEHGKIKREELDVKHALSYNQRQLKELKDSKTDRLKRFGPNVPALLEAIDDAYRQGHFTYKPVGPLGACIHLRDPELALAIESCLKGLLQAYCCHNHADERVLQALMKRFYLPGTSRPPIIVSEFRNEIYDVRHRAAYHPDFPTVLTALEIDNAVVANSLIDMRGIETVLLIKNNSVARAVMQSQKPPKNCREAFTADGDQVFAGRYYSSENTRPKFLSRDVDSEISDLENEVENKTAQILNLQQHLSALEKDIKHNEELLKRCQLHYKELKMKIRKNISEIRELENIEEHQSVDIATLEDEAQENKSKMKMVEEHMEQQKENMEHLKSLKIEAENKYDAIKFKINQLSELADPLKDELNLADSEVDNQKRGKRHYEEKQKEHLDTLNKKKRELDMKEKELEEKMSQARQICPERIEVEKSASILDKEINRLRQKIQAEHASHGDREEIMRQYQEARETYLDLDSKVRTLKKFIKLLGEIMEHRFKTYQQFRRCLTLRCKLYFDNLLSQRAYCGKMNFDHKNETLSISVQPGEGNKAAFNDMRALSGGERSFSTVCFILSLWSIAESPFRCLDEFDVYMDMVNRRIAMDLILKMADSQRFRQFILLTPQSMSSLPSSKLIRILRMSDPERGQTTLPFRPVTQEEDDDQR
Assay: tandem affinity co-purification

B1: human Smc5 with poly-histidine tag (His-Smc5), subunit of the Smc5/6 dimer (natural protein, UniProt Q8IY18 1-1101, looked up)
chain: MATPSKKTSTPSPQPSKRALPRDPSSEVPSKRKNSAPQLPLLQSSGPFVEGSIVRISMENFLTYDICEVSPGPHLNMIVGANGTGKSSIVCAICLGLAGKPAFMGRADKVGFFVKRGCSRGMVEIELFRASGNLVITREIDVAKNQSFWFINKKSTTQKIVEEKVAALNIQVGNLCQFLPQDKVGEFAKLSKIELLEATEKSIGPPEMHKYHCELKNLREKEKQLETSCKEKTEYLQKMVQRNERYKQDVERFYERKRHLDLIEMLEAKRPWVEYENVRQEYEEVKLVRDRVKEEVRKLKEGQIPVTCRIEEMENERHNLEARIKEKATDIKEASQKCKQKQDVIERKDKHIEELQQALIVKQNEELDRQRRIGNTRKMIEDLQNELKTTENCENLQPQIDAITNDLRRIQDEKALCEGEIIDKRRERETLEKEKKSVDDHIVRFDNLMNQKEDKLRQRFRDTYDAVLWLRNNRDKFKQRVCEPIMLTINMKDNKNAKYIENHIPSNDLRAFVFESQEDMEVFLKEVRDNKKLRVNAVIAPKSSYADKAPSRSLNELKQYGFFSYLRELFDAPDPVMSYLCCQYHIHEVPVGTEKTRERIERVIQETRLKQIYTAEEKYVVKTSFYSNKVISSNTSLKVAQFLTVTVDLEQRRHLEEQLKEIHRKLQAVDSGLIALRETSKHLEHKDNELRQKKKELLERKTKKRQLEQKISSKLGSLKLMEQDTCNLEEEERKASTKIKEINVQKAKLVTELTNLIKICTSLHIQKVDLILQNTTVISEKNKLESDYMAASSQLRLTEQHFIELDENRQRLLQKCKELMKRARQVCNLGAEQTLPQEYQTQVPTIPNGHNSSLPMVFQDLPNTLDEIDALLTEERSRASCFTGLNPTIVQEYTKREEEIEQLTEELKGKKVELDQYRENISQVKERWLNPLKELVEKINEKFSNFFSSMQCAGEVDLHTENEEDYDKYGIRIRVKFRSSTQLHELTPHHQSGGERSVSTMLYLMALQELNRCPFRVVDEINQGMDPINERRVFEMVVNTACKENTSQYFFITPKLLQNLPYSEKMTVLFVYNGPHMLEPNTWNLKAFQRRRRRITFTQPS
stoichiometry N: 1
